Data from patent publication US20170224836A1 (Novartis, published 2017).

T1: human CDH6 on cells (human, UniProt P55285 54-790)
T1 sequence: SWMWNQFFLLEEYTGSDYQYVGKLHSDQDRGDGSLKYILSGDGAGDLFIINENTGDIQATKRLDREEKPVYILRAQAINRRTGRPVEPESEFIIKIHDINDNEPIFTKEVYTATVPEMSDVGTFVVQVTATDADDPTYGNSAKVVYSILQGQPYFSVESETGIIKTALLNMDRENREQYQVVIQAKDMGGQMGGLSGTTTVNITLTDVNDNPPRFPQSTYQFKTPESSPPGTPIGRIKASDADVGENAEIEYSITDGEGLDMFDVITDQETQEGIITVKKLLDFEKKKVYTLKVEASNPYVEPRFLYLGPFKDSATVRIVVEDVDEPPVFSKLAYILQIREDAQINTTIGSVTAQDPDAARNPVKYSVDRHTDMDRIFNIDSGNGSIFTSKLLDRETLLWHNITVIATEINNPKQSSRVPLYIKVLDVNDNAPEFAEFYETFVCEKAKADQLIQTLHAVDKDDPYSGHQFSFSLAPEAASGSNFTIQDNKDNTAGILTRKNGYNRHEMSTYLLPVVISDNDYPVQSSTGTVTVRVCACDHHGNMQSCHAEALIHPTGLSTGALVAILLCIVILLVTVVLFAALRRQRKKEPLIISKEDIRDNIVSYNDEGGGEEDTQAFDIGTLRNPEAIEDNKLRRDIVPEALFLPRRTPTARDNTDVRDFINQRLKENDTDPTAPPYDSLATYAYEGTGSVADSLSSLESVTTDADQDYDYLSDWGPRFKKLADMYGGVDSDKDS


target: T1, human CDH6 on cells; assay: cell-based or functional assay

| Binder | percent inhibition at 1.22 nM ADC, JHOS4 cells [%] | percent inhibition at 1.22 nM ADC, KNS42 cells [%] | percent inhibition at 1.22 nM ADC, NCIH661 cells [%] | percent inhibition at 1.22 nM ADC, OVCAR3 cells [%] | percent inhibition at 1.22 nM ADC, SNU8 cells [%] |
| --- | --- | --- | --- | --- | --- |
| NOV0713-SMCC-DM1 (antibody, human IgG1, lambda, V domains shown, SMCC-DM1 on primary amines, sites not stated) VH: QVQLQQSGPGLVKPSQTLSLTCAISGDSVSSNSAAWNWIRQSPSRGLEWLGRIYYRSKWYNDYAVSVKSRITINPDTSKNQFSLQLNSVTPEDTAVYYCARGLVGRYGQPYHFDVWGQGTLVTVSS VL: DIELTQPPSVSVSPGQTASITCSGDNLRSYYVHWYQQKPGQAPVLVIYGNNKRPSGIPERFSGSNSGNTATLTISGTQAEDEADYYCGVYTLSSVVFGGGTKLTVLG | -6.22 | -17.3 | -9.74 | -3.55 | 7.79 |
| NOV0695-SMCC-DM1 (antibody, human IgG1, kappa, V domains shown, SMCC-DM1 on primary amines, sites not stated) VH: QVQLQQSGPGLVKPSQTLSLTCAISGDSVSSNSAAWNWIRQSPSRGLEWLGRIYYRSKWYNDYAVSVKSRITINPDTSKNQFSLQLNSVTPEDTAVYYCARERSYRDYFDYWGQGTLVTVSS VL: DIQMTQSPSSLSASVGDRVTITCRASQGIFTYLNWYQQKPGKAPKLLISAASTLQSGVPSRFSGSGSGTDFTLTISSLQPEDFATYYCQQYYSTSLTFGQGTKVEIKR | 66.9 | 66.3 | 18.7 | 89 | 21.6 |
| NOV0674-SMCC-DM1 (antibody, human IgG1, lambda, V domains shown, SMCC-DM1 on primary amines, sites not stated) VH: QVQLLESGGGLVQPGGSLRLSCAASGFTFSSYAMTWVRQAPGKGLEWVSGISGGGSNTYYADSVKGRFTISRDNSKNTLYLQMNSLRAEDTAVYYCARGGGQYFDYWGQGTLVTVSS VL: DIVLTQPPSVSGAPGQRVTISCSGSSSNIGYNYVSWYQQLPGTAPKLLIYRDNQRPSGVPDRFSGSKSGTSASLAITGLQAEDEADYYCAAWTSGSIGWVFGGGTKLTVLG | -11.9 | -6.82 | 3.9 | -10.3 | -1.42 |
| NOV0670-SMCC-DM1 (antibody, human IgG1, lambda, V domains shown, SMCC-DM1 on primary amines, sites not stated) VH: QVQLVQSGAEVKKPGSSVKVSCKASGGTFSSYAISWVRQAPGQGLEWMGGIIPIFGTANYAQKFQGRVTITADESTSTAYMELSSLRSEDTAVYYCARKFPGRGPFAYWGQGTLVTVSS VL: DIVLTQPPSVSGAPGQRVTISCSGSSSNIGSQYVYWYQQLPGTAPKLLIYYNSERPSGMPDRFSGSKSGTSASLAITGLQAEDEADYYCQTWDASSQSFVFGGGTKLTVLG | -27.9 | -18.6 | 5.14 | -30 | -15.6 |
| NOV0705-SMCC-DM1 (antibody, human IgG1, lambda, V domains shown, SMCC-DM1 on primary amines, sites not stated) VH: QVQLVQSGAEVKKPGESLKISCKGSGYSFTNYWIGWVRQMPGKGLEWMGFIDPGVSYTRYSPSFQGQVTISADKSISTAYLQWSSLKASDTAMYYCARVLAHSTEYNWPAFWGQGTLVTVSS VL: DIVLTQPPSVSGAPGQRVTISCSGSSSNIGLDYVNWYQQLPGTAPKLLIYRNKQRPSGVPDRFSGSKSGTSASLAITGLQAEDEADYYCQAWAGRTNYVVFGGGTKLTVLG | 40.4 | -13.3 | -3.15 | 68.6 | 6.4 |
| NOV0693-SMCC-DM1 (antibody, human IgG1, kappa, V domains shown, SMCC-DM1 on primary amines, sites not stated) VH: QVQLLESGGGLVQPGGSLRLSCAASGFTFSSYALHWVRQAPGKGLEWVSYIFYDSSSTYYADSVKGRFTISRDNSKNTLYLQMNSLRAEDTAVYYCARFLYSAYGVANWGQGTLVTVSS VL: DIQMTQSPSSLSASVGDRVTITCRASQSISFYLAWYQQKPGKAPKLLIYGASTLQSGVPSRFSGSGSGTDFTLTISSLQPEDFATYYCHQYSYWLRTFGQGTKVEIKR | 58.1 | 15.2 | 25.9 | 85.7 | 35.6 |
| NOV0689-SMCC-DM1 (antibody, human IgG1, lambda, V domains shown, SMCC-DM1 on primary amines, sites not stated) VH: QVQLLESGGGLVQPGGSLRLSCAASGFTFSSFAMNWVRQAPGKGLEWVSVISSSGSNTNYADSVKGRFTISRDNSKNTLYLQMNSLRAEDTAVYYCARPSYFQAMDYWGQGTLVTVSS VL: DIVLTQPPSVSGAPGQRVTISCSGSSSNIGSNFVSWYQQLPGTAPKLLIYDNSNRPSGVPDRFSGSKSGTSASLAITGLQAEDEADYYCSSYDSFDHSWVFGGGTKLTVLG | 3.63 | -3.11 | -0.53 | 7.21 | 10.3 |
| NOV0692-SMCC-DM1 (antibody, human IgG1, lambda, V domains shown, SMCC-DM1 on primary amines, sites not stated) VH: QVQLVESGGGLVKPGGSLRLSCAASGFTFSRYWMDWVRQAPGKGLEWVGRIKSKANGGITDYAAPVKGRFTISRDDSKNTLYLQMNSLKTEDTAVYYCARGMTFLGIWGQGTLVTVSS VL: DIELTQPPSVSVSPGQTASITCSGDSIGSKYAQWYQQKPGQAPVLVIYYNSERPSGIPERFSGSNSGNTATLTISGTQAEDEADYYCQSWDGQSTIRVFGGGTKLTVLG | 62.3 | 57.3 | 14.8 | 88 | 15.7 |
| NOV0672-SMCC-DM1 (antibody, human IgG1, lambda, V domains shown, SMCC-DM1 on primary amines, sites not stated) VH: QVQLLESGGGLVQPGGSLRLSCAASGFTFNTYGIHWVRQAPGKGLEWVSYIHYSGSSTYYADSVKGRFTISRDNSKNTLYLQMNSLRAEDTAVYYCARHAYGYMDFWGQGTLVTVSS VL: DIALTQPASVSGSPGQSITISCTGTSSDVGAYNYVSWYQQHPGKAPKLMIYGVSKRPSGVSNRFSGSKSGNTASLTISGLQAEDEADYYCQSYDHLLHVVFGGGTKLTVLG | -23 | -12.3 | -6.14 | -16.2 | -10.9 |
| NOV0691-SMCC-DM1 (antibody, human IgG1, lambda, V domains shown, SMCC-DM1 on primary amines, sites not stated) VH: QVQLVESGGGLVKPGGSLRLSCAASGFTFSSYALNWVRQAPGKGLEWVGRIKSKTYGGSTDYAAPVKGRFTISRDDSKNTLYLQMNSLKTEDTAVYYCARDRGGYVGFDSWGQGTLVTVSS VL: DIALTQPASVSGSPGQSITISCTGTSSDVGRYNFVSWYQQHPGKAPKLMIYRVSNRPSGVSNRFSGSKSGNTASLTISGLQAEDEADYYCQSWTTYSNVVFGGGTKLTVLG | -14.4 | -9.23 | -10.5 | -1.5 | -2.56 |
| NOV0709-SMCC-DM1 (antibody, human IgG1, lambda, V domains shown, SMCC-DM1 on primary amines, sites not stated) VH: QVQLLESGGGLVQPGGSLRLSCAASGFTFSTYYMHWVRQAPGKGLEWVSVISSDGSFTFYADSVKGRFTISRDNSKNTLYLQMNSLRAEDTAVYYCARHGYGAFDYWGQGTLVTVSS VL: DIALTQPASVSGSPGQSITISCTGTSSDVGSYNYVSWYQQHPGKAPKLMIYYVSNRPSGVSNRFSGSKSGNTASLTISGLQAEDEADYYCASYTHQGSWVFGGGTKLTVLG | 4.5 | -4.2 | 5.91 | 46.9 | -7.7 |
| NOV0682-SMCC-DM1 (antibody, human IgG1, kappa, V domains shown, SMCC-DM1 on primary amines, sites not stated) VH: QVQLVESGGGLVKPGGSLRLSCAASGFTFSSYAISWVRQAPGKGLEWVGFIKSNADGYTTNYAAPVKGRFTISRDDSKNTLYLQMNSLKTEDTAVYYCARIRYFRNWDYWGQGTLVTVSS VL: DIQMTQSPSSLSASVGDRVTITCRASQTINSYLNWYQQKPGKAPKLLIYRASNLQSGVPSRFSGSGSGTDFTLTISSLQPEDFATYYCQQGDSSWTFGQGTKVEIKR | 33.9 | 23.8 | 16.4 | 61.8 | 10.8 |
| NOV0685-SMCC-DM1 (antibody, human IgG1, lambda, V domains shown, SMCC-DM1 on primary amines, sites not stated) VH: QVQLQQSGPGLVKPSQTLSLTCAISGDSVSGNSAAWNWIRQSPSRGLEWLGIIYYRSKWYNDYAVSVKSRITINPDTSKNQFSLQLNSVTPEDTAVYYCARSSYSGGFDYWGQGTLVTVSS VL: DIVLTQPPSVSGAPGQRVTISCSGSSSNIGSYYVSWYQQLPGTAPKLLIYYNTKRPSGVPDRFSGSKSGTSASLAITGLQAEDEADYYCQSWDKLGKGYVFGGGTKLTVLG | -14.7 | -14.7 | 2.08 | -20.6 | -0.1 |
| NOV0690-SMCC-DM1 (antibody, human IgG1, lambda, V domains shown, SMCC-DM1 on primary amines, sites not stated) VH: QVQLLESGGGLVQPGGSLRLSCAASGFTFSDHAIDWVRQAPGKGLEWVSVIAGDGSITYYADSVKGRFTISRDNSKNTLYLQMNSLRAEDTAVYYCARDTGVYREYMDVWGQGTLVTVSS VL: DIELTQPPSVSVSPGQTASITCSGDAIGTKFAHWYQQKPGQAPVLVIYYDHERPSGIPERFSGSNSGNTATLTISGTQAEDEADYYCYSRASSNLVFGGGTKLTVLG | 51 | 56.8 | 14.6 | 84.8 | 18.4 |
